Reference: paper PMC7181406
Several values for one entry are separate records, joined by “and”; a condition that tells them apart may be missing. Equal entries are not always repeated. Where two headings read alike, the source gives them in different places. Each block holds one substance with its values, some of them ahead of it.

Legend:
Test in all cases: TIRF microscopy
[1] = biological target: taxol-stabilized microtubules assembled from porcine brain tubulin (porcine) (UniProt P02550)
[2] = biological target: taxol-stabilized microtubules assembled from porcine brain tubulin (porcine) (UniProt P02550); remark: listed apart in the source
[3] = biological target: taxol-stabilized microtubules assembled from porcine brain tubulin (porcine) (UniProt P02550); remark: listed apart in the source
[4] = biological target: taxol-stabilized microtubules assembled from porcine brain tubulin (porcine) (UniProt P02550); remark: listed apart in the source
[5] = biological target: taxol-stabilized microtubules assembled from porcine brain tubulin (porcine) (UniProt P02550); remark: listed apart in the source
[6] = biological target: taxol-stabilized microtubules assembled from porcine brain tubulin (porcine) (UniProt P02550); remark: listed apart in the source
[7] = biological target: taxol-stabilized microtubules assembled from porcine brain tubulin (porcine) (UniProt P02550); remark: listed apart in the source
[8] = biological target: taxol-stabilized microtubules assembled from porcine brain tubulin (porcine) (UniProt P02550); remark: listed apart in the source
[9] = biological target: taxol-stabilized microtubules assembled from porcine brain tubulin (porcine) (UniProt P02550); remark: listed apart in the source
[10] = biological target: taxol-stabilized microtubules assembled from porcine brain tubulin (porcine) (UniProt P02550); remark: listed apart in the source
[11] = biological target: taxol-stabilized microtubules assembled from porcine brain tubulin (porcine) (UniProt P02550); remark: listed apart in the source
[12] = biological target: taxol-stabilized microtubules assembled from porcine brain tubulin (porcine) (UniProt P02550); remark: listed apart in the source
[13] = biological target: taxol-stabilized microtubules assembled from porcine brain tubulin (porcine) (UniProt P02550); remark: listed apart in the source

fluorescence intensity on microtubules [1]: 13700 A.U.
fluorescence intensity on microtubules [2]: 13200 A.U.
Substance: TMR-GST-dynein motor domain (SNAPf-GST-hDyn) (domain or fragment)

fluorescence intensity on microtubules [2]: 44200 A.U.
Substance: p150-mScarlet (from UniProt Q14203-1 1-1278) (natural protein)

landing rate (motors μm^−1min^−1nM^−1) [3]: 0.83
landing rate (motors μm^−1min^−1nM^−1) [4]: 6.04
landing rate (motors μm^−1min^−1nM^−1) [2]: 5.44
Substance: KIF5B_(K-insert)-mScarlet (from UniProt P33176 1-560) (domain or fragment)

landing rate (motors μm^−1min^−1nM^−1) [5]: 0.03
landing rate (motors μm^−1min^−1nM^−1) [6]: 2.72
landing rate (motors μm^−1min^−1nM^−1) [7]: 0.03
landing rate (motors μm^−1min^−1nM^−1) [8]: 0.05
landing rate (motors μm^−1min^−1nM^−1) [9]: 0.01 and 0.005
landing rate (motors μm^−1min^−1nM^−1) [10]: 0.07
landing rate (motors μm^−1min^−1nM^−1) [11]: 0.58
landing rate (motors μm^−1min^−1nM^−1) [12]: 0.02
landing rate (motors μm^−1min^−1nM^−1) [13]: 0.06
landing rate (motors μm^−1min^−1nM^−1) [2]: 0.11
Substance: KIF5B_(1-560)-mScarlet (from UniProt P33176 1-560) (domain or fragment)
